Measured values reported in patent US20080193444A1.
One block for each molecule: values may come before it.

Columns and labels:
Assay in all cases: cell-based or functional assay
[1] = target: αv integrin subunit (rat hippocampus) (rat)
[2] = target: β1 integrin (human) (UniProt P05556)
[3] = target: α2 integrin (human) (UniProt P17301)
[4] = target: α6 integrin (human) (UniProt P23229)
[5] = target: α2β1 integrin (human) (UniProt P17301)
[6] = target: α5 integrin (human) (UniProt P08648)
[7] = target: αvβ1 integrin (human) (UniProt P06756)
[8] = target: α1 integrin (human) (UniProt P56199)
UniProt P56199, sequence (P56199 29-1179): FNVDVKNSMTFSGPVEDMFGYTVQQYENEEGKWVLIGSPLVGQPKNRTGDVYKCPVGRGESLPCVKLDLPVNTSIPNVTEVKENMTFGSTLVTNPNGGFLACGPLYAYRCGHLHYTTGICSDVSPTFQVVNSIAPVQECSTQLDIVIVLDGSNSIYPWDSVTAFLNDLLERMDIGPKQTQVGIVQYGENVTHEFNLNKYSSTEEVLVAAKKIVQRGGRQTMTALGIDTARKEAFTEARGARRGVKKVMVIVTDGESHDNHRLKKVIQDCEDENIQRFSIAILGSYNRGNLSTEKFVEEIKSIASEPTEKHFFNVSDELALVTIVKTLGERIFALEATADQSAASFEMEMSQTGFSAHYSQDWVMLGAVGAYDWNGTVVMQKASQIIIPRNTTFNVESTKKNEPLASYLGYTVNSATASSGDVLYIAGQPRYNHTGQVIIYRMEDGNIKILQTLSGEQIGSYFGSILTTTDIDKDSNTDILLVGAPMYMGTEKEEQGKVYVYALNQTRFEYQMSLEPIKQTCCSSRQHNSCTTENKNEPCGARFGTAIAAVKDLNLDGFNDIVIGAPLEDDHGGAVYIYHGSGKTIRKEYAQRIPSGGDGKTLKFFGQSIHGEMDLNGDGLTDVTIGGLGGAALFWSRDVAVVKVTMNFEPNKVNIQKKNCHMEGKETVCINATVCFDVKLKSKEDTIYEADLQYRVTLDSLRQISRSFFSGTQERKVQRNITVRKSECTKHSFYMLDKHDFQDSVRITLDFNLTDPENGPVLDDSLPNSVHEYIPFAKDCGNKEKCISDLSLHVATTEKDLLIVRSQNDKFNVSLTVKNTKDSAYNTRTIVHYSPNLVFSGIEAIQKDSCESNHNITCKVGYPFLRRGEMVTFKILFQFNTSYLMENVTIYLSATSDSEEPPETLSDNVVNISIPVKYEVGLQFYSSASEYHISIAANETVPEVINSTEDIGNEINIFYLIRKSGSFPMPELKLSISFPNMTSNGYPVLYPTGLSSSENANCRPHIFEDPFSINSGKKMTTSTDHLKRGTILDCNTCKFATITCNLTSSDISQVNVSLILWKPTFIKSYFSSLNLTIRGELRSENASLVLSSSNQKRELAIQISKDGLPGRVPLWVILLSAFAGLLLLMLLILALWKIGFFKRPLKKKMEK

[9] = target: α9 integrin (human) (UniProt Q13797)
UniProt Q13797, sequence (Q13797 30-1035): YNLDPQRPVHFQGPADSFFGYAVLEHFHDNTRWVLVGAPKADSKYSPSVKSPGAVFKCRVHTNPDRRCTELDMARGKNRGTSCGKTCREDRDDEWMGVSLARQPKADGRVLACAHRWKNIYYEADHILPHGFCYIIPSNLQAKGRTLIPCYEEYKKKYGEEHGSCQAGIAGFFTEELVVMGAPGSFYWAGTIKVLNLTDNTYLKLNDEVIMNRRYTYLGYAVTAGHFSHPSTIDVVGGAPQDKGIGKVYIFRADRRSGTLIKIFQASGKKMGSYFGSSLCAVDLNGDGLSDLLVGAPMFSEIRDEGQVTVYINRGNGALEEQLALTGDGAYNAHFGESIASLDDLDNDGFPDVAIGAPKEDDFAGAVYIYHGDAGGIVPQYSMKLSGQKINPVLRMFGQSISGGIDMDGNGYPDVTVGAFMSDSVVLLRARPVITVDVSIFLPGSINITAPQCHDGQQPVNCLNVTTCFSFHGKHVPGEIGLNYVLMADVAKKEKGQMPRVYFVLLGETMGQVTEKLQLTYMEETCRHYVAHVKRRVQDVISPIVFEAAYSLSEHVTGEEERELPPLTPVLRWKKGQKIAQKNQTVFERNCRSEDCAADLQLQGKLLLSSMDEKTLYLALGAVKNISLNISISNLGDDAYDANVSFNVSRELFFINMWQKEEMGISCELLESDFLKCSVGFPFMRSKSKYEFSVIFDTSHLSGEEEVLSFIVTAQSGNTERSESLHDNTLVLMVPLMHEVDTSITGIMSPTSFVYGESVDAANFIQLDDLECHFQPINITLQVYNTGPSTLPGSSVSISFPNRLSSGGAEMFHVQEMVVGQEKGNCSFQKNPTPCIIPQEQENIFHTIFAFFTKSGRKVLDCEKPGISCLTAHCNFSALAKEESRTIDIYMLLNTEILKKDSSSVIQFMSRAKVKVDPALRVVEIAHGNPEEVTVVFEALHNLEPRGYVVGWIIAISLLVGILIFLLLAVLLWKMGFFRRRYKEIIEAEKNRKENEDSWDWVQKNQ

UniProt P08648, sequence (P08648 42-1049): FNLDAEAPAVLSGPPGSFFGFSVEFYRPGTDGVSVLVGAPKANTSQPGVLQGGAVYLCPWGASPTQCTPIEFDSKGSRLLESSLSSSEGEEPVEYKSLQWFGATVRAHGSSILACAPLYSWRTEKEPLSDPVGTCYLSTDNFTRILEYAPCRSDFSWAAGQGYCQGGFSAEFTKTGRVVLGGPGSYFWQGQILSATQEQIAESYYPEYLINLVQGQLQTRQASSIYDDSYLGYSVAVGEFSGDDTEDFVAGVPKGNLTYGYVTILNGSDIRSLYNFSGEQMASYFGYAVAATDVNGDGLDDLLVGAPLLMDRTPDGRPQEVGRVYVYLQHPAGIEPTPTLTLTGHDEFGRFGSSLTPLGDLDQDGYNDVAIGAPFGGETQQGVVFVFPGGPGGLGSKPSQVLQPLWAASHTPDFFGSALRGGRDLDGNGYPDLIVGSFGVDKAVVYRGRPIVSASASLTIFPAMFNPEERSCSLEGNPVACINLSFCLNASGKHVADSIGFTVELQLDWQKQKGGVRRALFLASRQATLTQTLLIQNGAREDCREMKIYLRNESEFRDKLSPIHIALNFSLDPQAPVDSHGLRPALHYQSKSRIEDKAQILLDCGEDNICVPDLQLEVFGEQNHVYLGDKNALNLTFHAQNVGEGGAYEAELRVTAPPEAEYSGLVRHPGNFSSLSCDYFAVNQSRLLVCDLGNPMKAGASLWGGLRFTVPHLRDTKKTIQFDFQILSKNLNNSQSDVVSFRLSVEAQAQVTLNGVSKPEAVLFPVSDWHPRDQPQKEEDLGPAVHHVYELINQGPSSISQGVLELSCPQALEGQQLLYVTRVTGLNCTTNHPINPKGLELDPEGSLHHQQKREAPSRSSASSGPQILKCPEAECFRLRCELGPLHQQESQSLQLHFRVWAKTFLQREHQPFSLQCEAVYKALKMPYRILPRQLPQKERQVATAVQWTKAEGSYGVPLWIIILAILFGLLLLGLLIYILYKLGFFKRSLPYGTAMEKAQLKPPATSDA
UniProt P05556, sequence (P05556 21-798): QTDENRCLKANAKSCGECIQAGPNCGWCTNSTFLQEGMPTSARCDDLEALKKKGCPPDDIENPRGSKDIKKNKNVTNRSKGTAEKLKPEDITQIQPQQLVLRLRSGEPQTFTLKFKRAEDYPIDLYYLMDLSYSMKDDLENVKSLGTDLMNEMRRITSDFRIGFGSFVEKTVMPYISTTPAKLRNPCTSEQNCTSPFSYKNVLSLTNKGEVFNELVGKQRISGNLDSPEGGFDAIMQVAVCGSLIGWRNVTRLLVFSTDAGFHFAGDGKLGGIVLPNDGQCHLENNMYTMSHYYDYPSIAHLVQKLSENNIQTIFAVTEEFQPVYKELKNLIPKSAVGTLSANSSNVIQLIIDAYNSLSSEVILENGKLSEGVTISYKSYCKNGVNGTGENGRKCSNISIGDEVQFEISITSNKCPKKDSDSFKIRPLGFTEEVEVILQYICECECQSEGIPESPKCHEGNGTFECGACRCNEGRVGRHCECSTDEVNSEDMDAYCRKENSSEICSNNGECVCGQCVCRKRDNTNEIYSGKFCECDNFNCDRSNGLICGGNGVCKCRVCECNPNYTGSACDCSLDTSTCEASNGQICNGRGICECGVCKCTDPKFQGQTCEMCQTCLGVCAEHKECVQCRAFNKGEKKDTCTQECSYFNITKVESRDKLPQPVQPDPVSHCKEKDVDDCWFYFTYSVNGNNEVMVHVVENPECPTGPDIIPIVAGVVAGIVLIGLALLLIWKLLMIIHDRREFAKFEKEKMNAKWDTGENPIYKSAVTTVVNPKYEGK
UniProt P23229, sequence (P23229 24-1130): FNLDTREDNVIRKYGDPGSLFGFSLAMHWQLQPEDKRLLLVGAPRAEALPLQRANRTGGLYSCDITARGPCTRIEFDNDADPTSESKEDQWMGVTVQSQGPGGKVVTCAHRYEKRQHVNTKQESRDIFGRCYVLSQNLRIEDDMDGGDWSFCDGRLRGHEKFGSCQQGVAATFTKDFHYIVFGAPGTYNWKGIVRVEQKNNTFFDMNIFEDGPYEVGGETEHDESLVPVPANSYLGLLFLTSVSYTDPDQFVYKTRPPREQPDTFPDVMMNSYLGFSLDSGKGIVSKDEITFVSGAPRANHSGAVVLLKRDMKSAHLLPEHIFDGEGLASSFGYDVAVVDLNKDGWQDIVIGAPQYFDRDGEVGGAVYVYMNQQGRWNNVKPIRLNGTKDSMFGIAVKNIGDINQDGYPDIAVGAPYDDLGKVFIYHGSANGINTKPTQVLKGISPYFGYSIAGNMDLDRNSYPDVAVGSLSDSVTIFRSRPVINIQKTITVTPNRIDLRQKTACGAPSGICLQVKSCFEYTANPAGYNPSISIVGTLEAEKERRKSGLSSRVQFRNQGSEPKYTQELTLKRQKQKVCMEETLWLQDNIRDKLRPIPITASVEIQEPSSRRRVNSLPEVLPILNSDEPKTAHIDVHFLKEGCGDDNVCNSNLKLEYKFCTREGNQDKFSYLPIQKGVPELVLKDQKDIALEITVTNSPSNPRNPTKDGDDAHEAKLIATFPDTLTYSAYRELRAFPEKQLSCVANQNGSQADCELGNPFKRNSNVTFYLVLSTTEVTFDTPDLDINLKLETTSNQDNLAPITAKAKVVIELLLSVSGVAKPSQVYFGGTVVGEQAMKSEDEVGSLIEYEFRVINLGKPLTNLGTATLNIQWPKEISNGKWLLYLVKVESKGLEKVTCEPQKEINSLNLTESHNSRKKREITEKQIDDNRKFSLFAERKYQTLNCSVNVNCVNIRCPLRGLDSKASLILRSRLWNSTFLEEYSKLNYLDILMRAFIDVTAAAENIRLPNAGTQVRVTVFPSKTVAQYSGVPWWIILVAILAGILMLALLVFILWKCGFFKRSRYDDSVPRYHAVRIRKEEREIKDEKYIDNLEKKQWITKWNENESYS

- LTP in the presence of Aβ plus antibody, CA1 in vivo (% baseline) [1]: 135%
- LTP in the presence of Aβ plus antibody, dentate gyrus in vitro (% baseline) [1]: 153%
Molecule: 17E6 (antibody)

Molecule: AIIB2 (antibody)
- Maximal inhibition of toxicity (%) [2]: 100%

Molecule: Gi9 (antibody)
- Maximal inhibition of toxicity (%) [3]: 100%

Molecule: GoH3 (antibody)
- Maximal inhibition of toxicity (%) [4]: 40%

Molecule: Laminin (ligand)
- Maximal inhibition of toxicity (%) [5]: 20%

Molecule: P1D6 (antibody)
- Maximal inhibition of toxicity (%) [6]: 5%

Molecule: SAM1 (antibody)
- Maximal inhibition of toxicity (%) [6]: 5%

- LTP in the presence of Aβ plus superfibronectin, dentate gyrus in vitro (% baseline) [1]: 147%
Molecule: Superfibronectin (ligand)
- Maximal inhibition of toxicity (%) [7]: 100%

Molecule: TS2/7 (antibody)
- Maximal inhibition of toxicity (%) [8]: 5%

Molecule: TS2/16 (activating) (antibody)
- Maximal inhibition of toxicity (%) [2]: 0%

Molecule: Y9A2 (antibody)
- Maximal inhibition of toxicity (%) [9]: 0%

Molecule: echistatin (from UniProt P17347 131-179) (peptide)
- LTP in the presence of Aβ plus echistatin, dentate gyrus in vitro (% baseline) [1]: 143%

B1: MAB1998 (antibody, from another filing, V domains shown)
VH: QVQLKESGPGLVAPSQSLSITCTVSGFSLTNYGIHWVRQPPGKGLEWLGVIWARGFTNYNSALMSRLIITKDNSQSQVFLKMNSLQPDDSATYFCARANDGVYYAMDYWGQGTSVTVSS
VL: QFVLTQSPAFLSASPGEKVTMTCSANSSVNYIHWYQQKSGTSPKKWIYDTSKLASGVPVRFSGSGSGTSYSLTISSMETEDAATYYCQQWTTNPLTFGAGTRVELK
- Maximal inhibition of toxicity (%) [3]: 25%
